Laboratory results as given in the supplement of paper PMC10567573.

B1: ZNF511 (parent)
chain: FDALDDYEHHYHTLHGNVCSFCKR
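Further: lentivirally expressed fusions sorted by FACS into six bins by GFP to DsRed ratio, PSI derived from sequencing read proportions per bin multiplied by bin number.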

Variants of: B1
Assay: protein stability index of a GFP-peptide fusion (GPS, HEK-293T) (PSI 1-6); higher = more stable
Conditions: c terminus: a fixed tail appended
In the case of FDALDDYEHHYHTLHGNVCSGCKR [F21G], the protein stability index is reported as 4.35. FDALDDYEHHYHTLHGNVCSLCKR [F21L] gave a protein stability index of 4.01. FDALDDYEHHYHTLHGNVCSECKR [F21E] gave a protein stability index of 4.18. FDALDDYEHHYHTLHGNVCSHCKR [F21H] gave a protein stability index of 4. Work on FDALDDYEHHYHTLHGNVCSPCKR [F21P] yielded a protein stability index of 3.49. FDALDDYEHHYHTLHGNVCSVCKR [F21V] showed a protein stability index of 4.45. With FDALDDYEHHYHTLHGNVCSDCKR [F21D] the protein stability index was 4.62. Variant FDALDDYEHHYHTLHGNVCSCCKR [F21C] has a protein stability index of 3.59. With FDALDDYEHHYHTLHGNVCSWCKR [F21W] the protein stability index was 4.32. For FDALDDYEHHYHTLHGNVCSACKR [F21A], the protein stability index was 4.3. Work on FDALDDYEHHYHTLHGNVCSQCKR [F21Q] yielded a protein stability index of 4.56. For FDALDDYEHHYHTLHGNVCSYCKR [F21Y], the protein stability index was 3.64. FDALDDYEHHYHTLHGNVCSRCKR [F21R] gave a protein stability index of 4.55. FDALDDYEHHYHTLHGNVCSICKR [F21I] gave a protein stability index of 4.22. In the case of FDALDDYEHHYHTLHGNVCSTCKR [F21T], the protein stability index is reported as 4.28. In the case of FDALDDYEHHYHTLHGNVCSMCKR [F21M], the protein stability index is reported as 3.71. In the case of FDALDDYEHHYHTLHGNVCSSCKR [F21S], the protein stability index is reported as 3.91. For FDALDDYEHHYHTLHGNVCSKCKR [F21K], the protein stability index was 4.2. FDALDDYEHHYHTLHGNVCSNCKR [F21N] showed a protein stability index of 4.15. Work on FDALDDYEHHYHTLHGPVCSFCKR [N17P] yielded a protein stability index of 3.16. FDALDDYEHHYHTLHGWVCSFCKR [N17W] gave a protein stability index of 2.6. Work on FDALDDYEHHYHTLHGSVCSFCKR [N17S] yielded a protein stability index of 3.98. Variant FDALDDYEHHYHTLHGVVCSFCKR [N17V] has a protein stability index of 3.67. Variant FDALDDYEHHYHTLHGLVCSFCKR [N17L] has a protein stability index of 2.29. FDALDDYEHHYHTLHGHVCSFCKR [N17H] showed a protein stability index of 3.64. Variant FDALDDYEHHYHTLHGTVCSFCKR [N17T] has a protein stability index of 3.5. In the case of FDALDDYEHHYHTLHGYVCSFCKR [N17Y], the protein stability index is reported as 2.93. For FDALDDYEHHYHTLHGMVCSFCKR [N17M], the protein stability index was 3.54. FDALDDYEHHYHTLHGGVCSFCKR [N17G] showed a protein stability index of 3.64. Work on FDALDDYEHHYHTLHGKVCSFCKR [N17K] yielded a protein stability index of 3.22. For FDALDDYEHHYHTLHGFVCSFCKR [N17F], the protein stability index was 3.1. FDALDDYEHHYHTLHGRVCSFCKR [N17R] gave a protein stability index of 3.9. For FDALDDYEHHYHTLHGQVCSFCKR [N17Q], the protein stability index was 2.24. FDALDDYEHHYHTLHGEVCSFCKR [N17E] gave a protein stability index of 3.96. FDALDDYEHHYHTLHGIVCSFCKR [N17I] showed a protein stability index of 3.25. Variant FDALDDYEHHYHTLHGNVCSFNKR [C22N] has a protein stability index of 3.22. In the case of FDALDDYEHHYHTLHGNVCSFPKR [C22P], the protein stability index is reported as 3. With FDALDDYEHHYHTLHGNVCSFIKR [C22I] the protein stability index was 2.26. FDALDDYEHHYHTLHGNVCSFQKR [C22Q] showed a protein stability index of 3.15. For FDALDDYEHHYHTLHGNVCSFVKR [C22V], the protein stability index was 3.04. Variant FDALDDYEHHYHTLHGNVCSFRKR [C22R] has a protein stability index of 2.73. In the case of FDALDDYEHHYHTLHGNVCSFSKR [C22S], the protein stability index is reported as 3.31. For FDALDDYEHHYHTLHGNVCSFLKR [C22L], the protein stability index was 2.11. In the case of FDALDDYEHHYHTLHGNVCSFHKR [C22H], the protein stability index is reported as 2.6. FDALDDYEHHYHTLHGNVCSFFKR [C22F] showed a protein stability index of 2.2. FDALDDYEHHYHTLHGNVCSFWKR [C22W] gave a protein stability index of 1.96. With FDALDDYEHHYHTLHGNVCSFAKR [C22A] the protein stability index was 3.11. With FDALDDYEHHYHTLHGNVCSFKKR [C22K] the protein stability index was 3.02. In the case of FDALDDYEHHYHTLHGNVCSFYKR [C22Y], the protein stability index is reported as 2.39. With FDALDDYEHHYHTLHGNVCSFEKR [C22E] the protein stability index was 3.2. FDALDDYEHHYHTLHGNVCSFTKR [C22T] gave a protein stability index of 2.59. Variant FDALDDYEHHYHTLHGNVCSFGKR [C22G] has a protein stability index of 2.37. With FDALDDYEHHYHTLHGNVCSFMKR [C22M] the protein stability index was 2.85. In the case of FDALDDYEHHYHTLHGNVCSFDKR [C22D], the protein stability index is reported as 3.29. For FDALDDYEHHYHTLHGNVCHFCKR [S20H], the protein stability index was 3.56. With FDALDDYEHHYHTLHGNVCMFCKR [S20M] the protein stability index was 4.04. For FDALDDYEHHYHTLHGNVCIFCKR [S20I], the protein stability index was 3.83. Work on FDALDDYEHHYHTLHGNVCDFCKR [S20D] yielded a protein stability index of 2.75. Variant FDALDDYEHHYHTLHGNVCPFCKR [S20P] has a protein stability index of 3.54. FDALDDYEHHYHTLHGNVCRFCKR [S20R] gave a protein stability index of 3.27. In the case of FDALDDYEHHYHTLHGNVCYFCKR [S20Y], the protein stability index is reported as 4.29. Variant FDALDDYEHHYHTLHGNVCVFCKR [S20V] has a protein stability index of 3.64. With FDALDDYEHHYHTLHGNVCNFCKR [S20N] the protein stability index was 3.74. In the case of FDALDDYEHHYHTLHGNVCTFCKR [S20T], the protein stability index is reported as 3.81. FDALDDYEHHYHTLHGNVCEFCKR [S20E] gave a protein stability index of 4.44. Variant FDALDDYEHHYHTLHGNVCFFCKR [S20F] has a protein stability index of 3.67. FDALDDYEHHYHTLHGNVCLFCKR [S20L] showed a protein stability index of 3.35. With FDALDDYEHHYHTLHGNVCQFCKR [S20Q] the protein stability index was 3.85. FDALDDYEHHYHTLHGNVCKFCKR [S20K] showed a protein stability index of 3.76. For FDALDDYEHHYHTLHGNVCWFCKR [S20W], the protein stability index was 2.63. Variant FDALDDYEHHYHTLHGNVCGFCKR [S20G] has a protein stability index of 2.7. For FDALDDYEHHYHTLHGNVCCFCKR [S20C], the protein stability index was 3.4. FDALDDYEHHYHTLHGNVCAFCKR [S20A] gave a protein stability index of 3.81. FDALDDYEHHYHTLHGNVSSFCKR [C19S] showed a protein stability index of 3.04. FDALDDYEHHYHTLHGNVLSFCKR [C19L] showed a protein stability index of 3.71. With FDALDDYEHHYHTLHGNVYSFCKR [C19Y] the protein stability index was 2.2. With FDALDDYEHHYHTLHGNVRSFCKR [C19R] the protein stability index was 2.75. Work on FDALDDYEHHYHTLHGNVTSFCKR [C19T] yielded a protein stability index of 3.41. FDALDDYEHHYHTLHGNVPSFCKR [C19P] gave a protein stability index of 3.1. With FDALDDYEHHYHTLHGNVQSFCKR [C19Q] the protein stability index was 2.92. Work on FDALDDYEHHYHTLHGNVMSFCKR [C19M] yielded a protein stability index of 2.63. In the case of FDALDDYEHHYHTLHGNVDSFCKR [C19D], the protein stability index is reported as 3.36. FDALDDYEHHYHTLHGNVASFCKR [C19A] showed a protein stability index of 3.11. FDALDDYEHHYHTLHGNVKSFCKR [C19K] showed a protein stability index of 3.27. Work on FDALDDYEHHYHTLHGNVESFCKR [C19E] yielded a protein stability index of 3.21. In the case of FDALDDYEHHYHTLHGNVHSFCKR [C19H], the protein stability index is reported as 3.19. In the case of FDALDDYEHHYHTLHGNVGSFCKR [C19G], the protein stability index is reported as 2.9. Work on FDALDDYEHHYHTLHGNVWSFCKR [C19W] yielded a protein stability index of 1.92. For FDALDDYEHHYHTLHGNVFSFCKR [C19F], the protein stability index was 2.24. FDALDDYEHHYHTLHGNVISFCKR [C19I] gave a protein stability index of 2.66. Variant FDALDDYEHHYHTLHGNVVSFCKR [C19V] has a protein stability index of 2.41. FDALDDYEHHYHTLHGNVNSFCKR [C19N] gave a protein stability index of 3.13. FDALDDYEHHYHTLHGNVCSFCKY [R24Y] showed a protein stability index of 2.88. For FDALDDYEHHYHTLHGNVCSFCKV [R24V], the protein stability index was 3.1.
